# Source: the supplement of paper PMC10567573
# B1: INTS3 (parent)
# chain: DLNSKGKKREFRFHPIKETVVEEP
# Variants of: B1
# Test: protein stability index of a GFP-peptide fusion (GPS, HEK-293T) (PSI 1-6); higher = more stable
# Conditions: c terminus: a fixed tail appended
# 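Note: lentivirally expressed fusions sorted by FACS into six bins by GFP to DsRed ratio, PSI derived from sequencing read proportions per bin multiplied by bin number.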
row,Variant,protein stability index
1,DLNSKGKNREFRFHPIKETVVEEP,2.54
2,DLNSKGKSREFRFHPIKETVVEEP,2.23
3,DLNSKGKPREFRFHPIKETVVEEP,1.94
4,DLNSKGKAREFRFHPIKETVVEEP,1.74
5,DLNSKGKDREFRFHPIKETVVEEP,3.35
6,DLNSKGKRREFRFHPIKETVVEEP,1.52
7,DLNSKGKIREFRFHPIKETVVEEP,2.24
8,DLNSKGKLREFRFHPIKETVVEEP,1.96
9,DLNSKGKHREFRFHPIKETVVEEP,2
10,DLNSKGKWREFRFHPIKETVVEEP,2.27
11,DLNSKGKYREFRFHPIKETVVEEP,2.27
12,DLNSKGKCREFRFHPIKETVVEEP,1.98
13,DLNSKGKEREFRFHPIKETVVEEP,2.93
14,DLNSKGKMREFRFHPIKETVVEEP,1.93
15,DLNSKGKTREFRFHPIKETVVEEP,2.36
16,DLNSKGKVREFRFHPIKETVVEEP,1.73
17,DLNSKGKGREFRFHPIKETVVEEP,2.08
18,DLNSKGKQREFRFHPIKETVVEEP,2.77
19,DLNSKGKFREFRFHPIKETVVEEP,2.09
20,DLNSKGKKRERRFHPIKETVVEEP,4.28
21,DLNSKGKKREIRFHPIKETVVEEP,3.55
22,DLNSKGKKRELRFHPIKETVVEEP,3.84
23,DLNSKGKKREQRFHPIKETVVEEP,4.11
24,DLNSKGKKREPRFHPIKETVVEEP,4.39

row,Variant,protein stability index
1,DLNSKGKKREDRFHPIKETVVEEP,4.88
2,DLNSKGKKREERFHPIKETVVEEP,4.94
3,DLNSKGKKRECRFHPIKETVVEEP,4.47
4,DLNSKGKKRENRFHPIKETVVEEP,4.13
5,DLNSKGKKREMRFHPIKETVVEEP,4.45
6,DLNSKGKKREKRFHPIKETVVEEP,4.46
7,DLNSKGKKREHRFHPIKETVVEEP,4.31
8,DLNSKGKKREYRFHPIKETVVEEP,3.89
9,DLNSKGKKREGRFHPIKETVVEEP,4.32
10,DLNSKGKKREWRFHPIKETVVEEP,2.1
11,DLNSKGKKREARFHPIKETVVEEP,3.95
12,DLNSKGKKRETRFHPIKETVVEEP,4.87
13,DLNSKGKKREVRFHPIKETVVEEP,4.02
14,DLNSKGKKRESRFHPIKETVVEEP,4.39
15,DLNSKGKKREFRLHPIKETVVEEP,4.78
16,DLNSKGKKREFRVHPIKETVVEEP,4.47
17,DLNSKGKKREFRWHPIKETVVEEP,3.72
18,DLNSKGKKREFRPHPIKETVVEEP,4.48
19,DLNSKGKKREFRRHPIKETVVEEP,3.99
20,DLNSKGKKREFRYHPIKETVVEEP,2.47
21,DLNSKGKKREFRNHPIKETVVEEP,4.65
22,DLNSKGKKREFREHPIKETVVEEP,4.75
23,DLNSKGKKREFRDHPIKETVVEEP,4.71
24,DLNSKGKKREFRMHPIKETVVEEP,4.25

row,Variant,protein stability index
1,DLNSKGKKREFRQHPIKETVVEEP,4.5
2,DLNSKGKKREFRKHPIKETVVEEP,4.06
3,DLNSKGKKREFRIHPIKETVVEEP,3.78
4,DLNSKGKKREFRTHPIKETVVEEP,4.02
5,DLNSKGKKREFRSHPIKETVVEEP,4.27
6,DLNSKGKKREFRGHPIKETVVEEP,4.31
7,DLNSKGKKREFRCHPIKETVVEEP,3.94
8,DLNSKGKKREFRAHPIKETVVEEP,4.44
9,DLNSKGKKREFRHHPIKETVVEEP,3.75
10,DLNSKGHKREFRFHPIKETVVEEP,2.35
11,DLNSKGEKREFRFHPIKETVVEEP,3.37
12,DLNSKGYKREFRFHPIKETVVEEP,1.94
13,DLNSKGNKREFRFHPIKETVVEEP,2.23
14,DLNSKGPKREFRFHPIKETVVEEP,1.94
15,DLNSKGQKREFRFHPIKETVVEEP,2.54
16,DLNSKGVKREFRFHPIKETVVEEP,2.54
17,DLNSKGWKREFRFHPIKETVVEEP,2.58
18,DLNSKGCKREFRFHPIKETVVEEP,1.86
19,DLNSKGMKREFRFHPIKETVVEEP,2.25
20,DLNSKGSKREFRFHPIKETVVEEP,2.48
21,DLNSKGDKREFRFHPIKETVVEEP,3.35
22,DLNSKGGKREFRFHPIKETVVEEP,2.28
23,DLNSKGLKREFRFHPIKETVVEEP,1.62
24,DLNSKGAKREFRFHPIKETVVEEP,2.57

row,Variant,protein stability index
1,DLNSKGRKREFRFHPIKETVVEEP,2.37
2,DLNSKGFKREFRFHPIKETVVEEP,1.72
3,DLNSKGIKREFRFHPIKETVVEEP,2.15
4,DLNSKGTKREFRFHPIKETVVEEP,2.79
5,DLNSKGKKREFYFHPIKETVVEEP,4.12
6,DLNSKGKKREFAFHPIKETVVEEP,4.15
7,DLNSKGKKREFGFHPIKETVVEEP,4.24
8,DLNSKGKKREFFFHPIKETVVEEP,3.13
9,DLNSKGKKREFVFHPIKETVVEEP,3.55
10,DLNSKGKKREFHFHPIKETVVEEP,4.2
11,DLNSKGKKREFDFHPIKETVVEEP,4.25
12,DLNSKGKKREFWFHPIKETVVEEP,3.02
13,DLNSKGKKREFKFHPIKETVVEEP,4.11
14,DLNSKGKKREFCFHPIKETVVEEP,3.99
15,DLNSKGKKREFMFHPIKETVVEEP,4.12
16,DLNSKGKKREFPFHPIKETVVEEP,4.07
17,DLNSKGKKREFIFHPIKETVVEEP,3.79
18,DLNSKGKKREFTFHPIKETVVEEP,4.28
19,DLNSKGKKREFLFHPIKETVVEEP,3.57
20,DLNSKGKKREFSFHPIKETVVEEP,4.04
21,DLNSKGKKREFQFHPIKETVVEEP,4
22,DLNSKGKKREFEFHPIKETVVEEP,4.03
23,DLNSKGKKREFNFHPIKETVVEEP,3.74
24,DLNSKGKKREFRFHPFKETVVEEP,1.88

row,Variant,protein stability index
1,DLNSKGKKREFRFHPGKETVVEEP,2.29
2,DLNSKGKKREFRFHPEKETVVEEP,2.96
3,DLNSKGKKREFRFHPCKETVVEEP,1.84
4,DLNSKGKKREFRFHPHKETVVEEP,2.31
5,DLNSKGKKREFRFHPDKETVVEEP,3.02
6,DLNSKGKKREFRFHPAKETVVEEP,2.06
7,DLNSKYKKREFRFHPIKETVVEEP,1.95
8,DLNSKQKKREFRFHPIKETVVEEP,2.3
9,DLNSKSKKREFRFHPIKETVVEEP,2.03
10,DLNSKVKKREFRFHPIKETVVEEP,2.56
11,DLNSKNKKREFRFHPIKETVVEEP,2.37
12,DLNSKMKKREFRFHPIKETVVEEP,2.4
13,DLNSKWKKREFRFHPIKETVVEEP,2.12
14,DLNSKRKKREFRFHPIKETVVEEP,1.33
15,DLNSKTKKREFRFHPIKETVVEEP,2.38
16,DLNSKPKKREFRFHPIKETVVEEP,2.42
17,DLNSKGKKREFRFHAIKETVVEEP,2.96
18,DLNSKGKKREFRFHHIKETVVEEP,3.09
19,DLNSKGKKREFRFHTIKETVVEEP,2.96
20,DLNSKGKKREFRFHEIKETVVEEP,3.2
21,DLNSKGKKREFRFHYIKETVVEEP,2.74
22,DLNSKGKKREFRFHGIKETVVEEP,3.15
23,DLNSKGKKREFRFHVIKETVVEEP,3.25
24,DLNSKGKKREFRFHRIKETVVEEP,2.9

row,Variant,protein stability index
1,DLNSKGKKREFRFHWIKETVVEEP,2.28
2,DLNSKGKKREFRFHIIKETVVEEP,2.65
3,DLNSKGKKREFRFHDIKETVVEEP,3.57
4,DLNSKGKKREFRFHNIKETVVEEP,3.65
5,DLNSKGKKREFRFHLIKETVVEEP,2.82
6,DLNSKGKKREFRFHSIKETVVEEP,2.37
7,DLNSKGKKREFRFHQIKETVVEEP,2.6
8,DLNSKGKKREFRFHMIKETVVEEP,2.29
9,DLNSKGKKREFRFHCIKETVVEEP,2.54
10,DLNSKGKKREFRFHKIKETVVEEP,3.18
11,DLNSKGKKREFRFHFIKETVVEEP,2.44
12,DLNSKGKKREFRFGPIKETVVEEP,4.02
13,DLNSKGKKREFRFMPIKETVVEEP,3.53
14,DLNSKGKKREFRFDPIKETVVEEP,4.59
15,DLNSKGKKREFRFEPIKETVVEEP,4.13
16,DLNSKGKKREFRFQPIKETVVEEP,3.78
17,DLNSKGKKREFRFYPIKETVVEEP,3.74
18,DLNSKGKKREFRFIPIKETVVEEP,3.57
19,DLNSKGKKREFRFWPIKETVVEEP,3.44
20,DLNSKGKKREFRFSPIKETVVEEP,3.89
21,DLNSKGKKREFRFTPIKETVVEEP,3.7
22,DLNSKGKKREFRFAPIKETVVEEP,3.83
23,DLNSKGKKREFRFVPIKETVVEEP,2.73
24,DLNSKGKKREFRFCPIKETVVEEP,3.36

row,Variant,protein stability index
1,DLNSKGKKREFRFKPIKETVVEEP,3.91
2,DLNSKGKKREFRFRPIKETVVEEP,3.88
3,DLNSKGKKREFRFNPIKETVVEEP,3.84
4,DLNSKGKKREFRFLPIKETVVEEP,4.01
5,DLNSKGKKREFRFPPIKETVVEEP,4.35
6,DLNSKGKKREFRFFPIKETVVEEP,3.34
7,DLNSKGKKRKFRFHPIKETVVEEP,2.88
8,DLNSKGKKRPFRFHPIKETVVEEP,2.55
9,DLNSKGKKRNFRFHPIKETVVEEP,2.58
10,DLNSKGKKRCFRFHPIKETVVEEP,2.97
11,DLNSKGKKRFFRFHPIKETVVEEP,1.76
12,DLNSKGKKRWFRFHPIKETVVEEP,2.1
13,DLNSKGKKRLFRFHPIKETVVEEP,1.94
14,DLNSKGKKRRFRFHPIKETVVEEP,1.96
15,DLNSKGKKRDFRFHPIKETVVEEP,2.7
16,DLNSKGKKRTFRFHPIKETVVEEP,1.99
17,DLNSKGKKRVFRFHPIKETVVEEP,1.3
18,DLNSKGKKRMFRFHPIKETVVEEP,1.64
19,DLNSKGKKRQFRFHPIKETVVEEP,1.87
20,DLNSKGKKRAFRFHPIKETVVEEP,3.19
21,DLNSKGKKRHFRFHPIKETVVEEP,2.72
22,DLNSKGKKRSFRFHPIKETVVEEP,1.65
23,DLNSKGKKRIFRFHPIKETVVEEP,1.78
24,DLNSKGKKRYFRFHPIKETVVEEP,1.49

row,Variant,protein stability index
1,DLNSKGKKRGFRFHPIKETVVEEP,2
2,DLNSKGKKFEFRFHPIKETVVEEP,1.65
3,DLNSKGKKNEFRFHPIKETVVEEP,2.49
4,DLNSKGKKMEFRFHPIKETVVEEP,1.78
5,DLNSKGKKIEFRFHPIKETVVEEP,2.35
6,DLNSKGKKGEFRFHPIKETVVEEP,2.41
7,DLNSKGKKDEFRFHPIKETVVEEP,4.09
8,DLNSKGKKCEFRFHPIKETVVEEP,2.31
9,DLNSKGKKPEFRFHPIKETVVEEP,2.34
10,DLNSKGKKVEFRFHPIKETVVEEP,2.37
11,DLNSKGKKTEFRFHPIKETVVEEP,2.56
12,DLNSKGKKHEFRFHPIKETVVEEP,1.79
13,DLNSKGKKYEFRFHPIKETVVEEP,2.31
14,DLNSKGKKLEFRFHPIKETVVEEP,1.78
15,DLNSKGKKWEFRFHPIKETVVEEP,2.21
16,DLNSKGKKKEFRFHPIKETVVEEP,3.07
17,DLNSKGKKQEFRFHPIKETVVEEP,2.83
18,DLNSKGKKAEFRFHPIKETVVEEP,2.87
19,DLNSKGKKEEFRFHPIKETVVEEP,3.73
20,DLNSKGKKSEFRFHPIKETVVEEP,2.53
